B1: Transcription elongation factor A N-terminal and central domain-containing protein, residues 30 to 77; numbered along this chain, Q8N8B7 (parent)
chain: LTELETIYVTKEHLQETDVVRAVYRVLKNCPSVALKKKAKCLLSKWKA

Variants of: B1
Assay: abundance fitness (aPCA) (normalised: wild type 0, dead -1); higher = more abundant; growth selection in yeast, the domain comes from the species named
Conditions: Homo sapiens

Abundance fitness of substitutions, site by site:
T17: D -0.368, I -0.654, V -0.526, H -0.37, R -0.099, N 0.149, G -0.092, Y -0.784, S -0.103, L -0.892, E -0.315, M 0.192, A -0.43, P 0.057, Q -0.649, C -0.103, K -0.14, F -0.852, W -0.142
Q15: C -0.002, I -0.46, F -0.212, N -0.388, D -0.27, Y -0.562, H -0.138, A -0.088, E -0.016, S -0.208, R 0.093, K 0.209, M -0.452, T -0.213, W 0.069, V -0.527, L -0.352, P 0.134
T2: R 0.011, Q -0.177, L -0.389, P -0.629, I -0.369, Y -0.078, F -0.483, W -0.711, K 0.11, M -0.461, N 0.036, S 0.198, G -0.078, V -0.813
E16: N -0.187, G -0.008, V -0.279, C -0.03, F 0.028, R 0.123, H -0.153, A -0.017, K -0.152, Q 0.285, I -0.28, Y -0.004, W -0.414, D 0.043, P 0.009, S 0.021, M 0.041, T -0.116
T6: C -0.262, F -0.23, R -0.074, E 0.126, Y -0.513, S 0.12, M -0.107, Q 0.08, N -0.514, G -0.024, D 0.094, A -0.355, H -0.147, L -0.616, K -0.059, I -0.891
E5: R -0.769, Q -0.498, N -0.587, C -0.897, P -0.663, H -0.346, G -0.775, K -0.393, I -0.48, A -0.235, Y -0.604, M -0.643, D -0.186, V -0.446, S -0.809, T -1.17, L -0.28
R21: Y -0.601, C -0.468, G -0.042, W -0.549, P -0.514, A -0.457, L -0.88, D -0.759, K -0.246, T -0.413, F -0.914, M -0.333, E -0.647, N -0.113, H -0.067, I -1.03, V -0.904
E12: C -0.79, L -0.792, S -0.168, P -0.25, M -0.538, I -0.707, Q -0.278, F -0.742, A -0.492, T -0.068, W -0.71, D -0.184, R -0.24, N -0.34, H -0.606, G -0.598, K 0.138
H13: T 0, V -0.698, G -0.232, Y -0.479, L -0.842, M -0.133, E 0.262, F -0.428, Q -0.078, K 0.106, R -0.126, C -0.224, N 0.07, I -0.668, S 0.02
I7: C -0.541, A 0.131, H -0.212, E 0.3, R 0.008, M 0.244, Q 0.015, G 0.224, S 0.147, V 0.006, P 0.091, W -0.631, Y -0.422, D 0.203, L -0.07, F -0.323, N 0.081, T 0.192
V20: E -0.561, H -0.491, W 0.07, C -0.034, G -0.109, Q -0.633, N -0.741, S -0.594, Y -0.301, A 0.015, F 0.071, L 0.113, D -0.215, P -0.19, T -0.414
A22: C -0.206
D18: I -0.263, T 0.158, F 0.169, C -0.09, M 0.384, Y 0.057, A 0.098, L -0.077, G 0.354, E -0.382, S 0.353, R 0.24, W 0.172, H 0.049, P -0.154, Q -0.07, K -0.136, V -0.094
T10: F -0.547, D -0.31, L -0.674, N -0.546, E -0.139, M -0.143, C -0.566, W -0.315, H -0.23, V -0.18, K -0.198, A -0.017, R -0.041, S -0.121, G -0.164, Y -0.771, Q 0.117, I -0.657
Y8: A 0.274, V -0.008, E 0.448, R -0.094, L -0.233, N -0.043, G 0.156, C -0.489, S -0.388, F -0.339
V9: M -0.098, G 0.061, S 0.085, D 0.276, W -0.277, E 0.318, I -0.163, P -0.027, K 0.251, H 0.107, F 0.045, N 0.232, L -0.229, T 0.087, Q 0.265, R 0.155, Y -0.147, C -0.172
L4: H 0.025, R 0.11, M 0.022, Q 0.142, T 0.269, V -0.23, C -0.51, S 0.216, A 0.17, N 0.469, I -0.174, D 0.257, P 0.279, F -0.044, Y -0.325, E 0.173, K 0.272
L14: H 0.294, G 0.252, Q 0.247, R 0.21, W 0.094, Y -0.124, D 0.184, P -0.049, S 0.296, A 0.241, T 0.328, V 0.172, K 0.23, N 0.235, C 0.061, E 0.336, M 0.16
V19: K -0.39, H -0.454, W -0.01, S -0.481, R 0.037, N -0.695, A -0.022, E -0.618, M 0.037, Y -0.595, Q -0.464, D -0.72, I -0.133, F -0.362, P -0.261, G -0.094, T -0.347, L -0.121
K11: Y -0.599, M -0.246, G -0.022, F -0.747, D -0.021, N -0.627, R -0.348, A 0.095, S -0.016, E 0.145, L -0.014, C -0.337, Q -0.184, I -0.08, T -0.555
E3: S -0.149, N -0.001, I -0.112, R -0.24, V -0.102, M -0.045, G -0.416, L -0.07, P -0.45, K -0.195, W 0.305, F 0.477, Q -0.222, C 0.159, H -0.696, D -0.209, T -0.464, Y -0.207
